Measured values from article PMC8136769, “Structural variation affecting DNA backbone interactions underlies adaptation of B3 DNA binding domains to constraints imposed by protein architecture”.

Legend:
GST-LEC2-B3 = molecular target: T1, GST-LEC2-B3 (Arabidopsis thaliana, UniProt Q1PFR7); assay: EMSA; BLI: Octet Qke, 1x Kinetics Buffer (ForteBio), pH 7.0, 0.05 uM biotinylated probe on streptavidin, temperature not stated; EMSA: MgCl2, 0.05% NP-40, 0.5 nM probe, 15 ul, room temperature 20 min, 6% gel in 0.5x TBE (rest of buffer not in material); conditions: protein: recombinant; tags: GST (N-terminal, pGEX-2T); label: 5' biotin on strand 1 (strand 2 oligo also named 5-Biotin-probe); blunt
T1 chain: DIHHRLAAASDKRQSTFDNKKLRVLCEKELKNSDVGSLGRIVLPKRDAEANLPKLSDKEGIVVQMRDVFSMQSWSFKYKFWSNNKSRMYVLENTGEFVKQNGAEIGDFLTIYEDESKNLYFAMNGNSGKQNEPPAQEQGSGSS

GST-FUS3-B3 = molecular target: T2, GST-FUS3-B3 (Arabidopsis thaliana, UniProt Q9LW31); assay: as above; conditions: protein: recombinant; tags: GST (N-terminal, pGEX-2T); label: 5' biotin on strand 1 (strand 2 oligo also named 5-Biotin-probe); blunt
T2 chain: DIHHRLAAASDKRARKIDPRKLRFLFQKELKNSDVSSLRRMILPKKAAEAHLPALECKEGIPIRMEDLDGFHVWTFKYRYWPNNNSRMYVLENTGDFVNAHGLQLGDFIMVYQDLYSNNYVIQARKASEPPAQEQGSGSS

B1: Sph2 probe (dsDNA)
DNA 1: CACGGATCATGCATGGACGACACGGATCATGCATGGACGACACG
DNA 2: CGTGTCGTCCATGCATGATCCGTGTCGTCCATGCATGATCCGTG
Binder B1 has a Kd (GST-LEC2-B3) of 198 nM and a Kd (GST-FUS3-B3) of 1.28 nM.
